Assay results reported in US20200353030A1 (BAR ILAN UNIVERSITY, published 2020).

B1: hRobo2 receptor ectodomain D4-D5 N426M (residues 311-509 of human Robo2) (receptor)
chain: RAPPQFVVRPRDQIVAQGRTVTFPCETKGNPQPAVFWQKEGSQNLLFPNQPQQPNSRCSVSPTGDLTITNIQRSDAGYYICQALTVAGSILAKAQLEVTDVLTDRPPPIILQGPAMQTLAVDGTALLKCKATGDPLPVISWLKEGFTFPGRDPRATIQEQGTLQIKNLRISDTGTYTCVATSSSGETSWSAVLDVTESG
modifications: additional 655 Da glycosylation found by mass spectroscopy (site not stated)
notes: also called WT hRobo2 D4-5; hRobo2 D4-D5 fragment; not shown: N-terminal FLAG tag of the modified pFastBac (pK503-9) vector; C-terminal hexahistidine tag
B2: Fab antibody fragment AbD32836.1 (Fab, V domains shown)
VH: EVQLVESGGGLVKPGGSLRLSCAASGFTFSSYALSWVRQAPGKGLEWVGHIKSKTDGGATEYAAPVKGRFTISRDDSKNTLYLQMNSLKTEDTAVYYCARSYSEYIPLYAFAVWGQGTLVTVSS
VL: DIVLTQPPSVSGAPGQRVTISCSGSSSNIGSKYVSWYQQLPGTAPKLLIYYTSQRPSGVPDRFSGSKSGTSASLAITGLQAEDEADYYCYAWDSTSTSTVFGGGTKLTVLG
notes: HuCAL phage display Fab from BioRad AbD Serotec, raised against hRobo2 D4-5; also called Fab AbD32836.1; Fab #AbD32836.1

How the values were obtained:
[1] = molecular target: hRobo2 receptor ectodomain D4-D5 F357R mutant (human) (UniProt Q9HCK4); assay: sedimentation equilibrium analytical ultracentrifugation, self-association; total molecular weight of the monomer in the same row 24686 Da; the KD column of this row prints 'monomer'
[2] = molecular target: Robo2 of mouse dorsal root ganglion explants (mouse) (UniProt Q7TPD3); assay: cell-based or functional assay
[3] = molecular target: hRobo2 receptor ectodomain D4-D5 L394R mutant (human) (UniProt Q9HCK4); assay: sedimentation equilibrium analytical ultracentrifugation, self-association; total molecular weight of the monomer in the same row 24720 Da; the KD column of this row prints 'monomer'
[4] = molecular target: the molecule itself; assay: SE-AUC, monomer-dimer fit, homodimerization in solution (10, 20 and 30 µM)
Experimental: All the sedimentation equilibrium experiments with hRobo2 receptor ectodomain D4-D5 constructs were performed using an XL-I analytical ultracentrifuge (Beckman-Coulter Inc.), with a UV-visible optics detection system, using an An60Ti rotor and 12-mm double sector centerpieces. Sedimentation curves were recorded and analyzed at 280 nm while spinning at 20° C. at 20,000 rpm in 10, 12, 14, and 20 hour time points, to assure that equilibrium was reached. Three concentrations (10, 20, and 30 μM) of WT hRobo2 receptor ectodomain D4-D5 (N426M) were measured. The F357R and L394R mutants were measured and analyzed in 20 μM. The molecular weight of WT hRobo2 receptor ectodomain D4-D5 fragment (N426M) was determined by mass spectroscopy using the Orbitrap Fusion Lumos with electron transfer dissociation (ETD), with both instrument and chromatography set up especially for the analysis of intact proteins. The recombinant protein includes an N′ terminal FLAG and C′ terminal 6XHis tags. […] The sedimentation coefficient distributions were calculated using SEDFIT and SEDPHAT (Gabrielson et al., 2007; Schuck et al., 2014).
The oligomeric state of hRobo2 receptor ectodomain D4-D5 in solution was determined by sedimentation equilibrium analytical ultracentrifugation (SE-AUC) (FIGS. 8A-8C). […]

[5] = molecular target: B1; assay: apparent KD; ELISA binding assay, method of the fit not stated

Sequence of Robo2 of mouse dorsal root ganglion explants (mouse) (Q7TPD3 22-1470): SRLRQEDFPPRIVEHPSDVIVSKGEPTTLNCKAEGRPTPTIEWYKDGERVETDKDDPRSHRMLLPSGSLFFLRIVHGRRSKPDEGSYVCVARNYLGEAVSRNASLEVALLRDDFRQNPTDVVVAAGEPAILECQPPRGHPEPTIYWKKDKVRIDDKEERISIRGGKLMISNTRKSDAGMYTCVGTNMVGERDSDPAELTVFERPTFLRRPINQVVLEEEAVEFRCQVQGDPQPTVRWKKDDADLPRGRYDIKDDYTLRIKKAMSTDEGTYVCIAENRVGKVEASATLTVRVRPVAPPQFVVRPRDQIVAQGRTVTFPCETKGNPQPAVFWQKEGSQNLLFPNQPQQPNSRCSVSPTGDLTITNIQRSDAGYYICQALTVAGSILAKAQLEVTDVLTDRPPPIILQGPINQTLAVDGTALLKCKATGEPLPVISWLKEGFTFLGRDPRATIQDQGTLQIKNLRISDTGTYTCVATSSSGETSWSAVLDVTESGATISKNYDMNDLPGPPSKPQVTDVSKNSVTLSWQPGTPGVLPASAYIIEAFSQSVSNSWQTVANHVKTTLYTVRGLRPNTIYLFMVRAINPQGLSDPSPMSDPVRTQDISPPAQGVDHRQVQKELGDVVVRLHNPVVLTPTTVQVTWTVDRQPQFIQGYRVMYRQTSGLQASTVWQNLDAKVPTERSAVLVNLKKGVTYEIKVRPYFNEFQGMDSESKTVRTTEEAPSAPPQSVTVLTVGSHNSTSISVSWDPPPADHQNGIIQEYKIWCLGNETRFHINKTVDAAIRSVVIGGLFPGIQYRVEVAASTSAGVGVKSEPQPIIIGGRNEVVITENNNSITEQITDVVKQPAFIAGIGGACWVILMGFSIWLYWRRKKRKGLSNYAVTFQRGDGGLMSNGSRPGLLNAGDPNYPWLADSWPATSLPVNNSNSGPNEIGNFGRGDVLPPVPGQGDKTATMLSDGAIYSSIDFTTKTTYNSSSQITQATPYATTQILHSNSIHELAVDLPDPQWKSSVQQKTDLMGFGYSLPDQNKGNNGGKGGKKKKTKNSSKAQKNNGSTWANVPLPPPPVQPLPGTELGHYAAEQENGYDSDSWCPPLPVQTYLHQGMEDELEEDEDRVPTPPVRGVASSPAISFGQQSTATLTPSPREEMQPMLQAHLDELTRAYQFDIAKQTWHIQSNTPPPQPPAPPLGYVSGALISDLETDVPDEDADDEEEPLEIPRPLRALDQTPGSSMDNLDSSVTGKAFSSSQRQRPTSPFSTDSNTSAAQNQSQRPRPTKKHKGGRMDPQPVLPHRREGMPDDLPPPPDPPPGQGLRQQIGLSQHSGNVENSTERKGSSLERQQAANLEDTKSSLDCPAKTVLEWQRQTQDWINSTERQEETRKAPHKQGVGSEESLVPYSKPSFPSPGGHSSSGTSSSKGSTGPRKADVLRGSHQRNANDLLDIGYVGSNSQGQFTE

Molecule: hRobo2 receptor ectodomain D4-D5 F357R mutant (from UniProt Q9HCK4 311-509)
- global distribution (Da) sedimentation equilibrium [1]: 24100 Da

Molecule: hSlitN2 (from UniProt O94813 31-1121) (ligand)
- growth cone collapse of DRG explants 10 min after 5 nM SlitN2, without Fab [2]: 60%

Molecule: hRobo2 receptor ectodomain D4-D5 L394R mutant (from UniProt Q9HCK4 311-509)
- global distribution (Da) sedimentation equilibrium [3]: 24700 Da

Molecule: B1
- Kd [4]: 16.9 µM

Molecule: B2
- Kd [5]: 0.18 µM
